Five molecules from PMC2575037 (Protein expression and purification, 2008) can be followed below.

In one data set the target is T1, mDHFR (Mus musculus, UniProt P00375).
T1 sequence (P00375 1-187): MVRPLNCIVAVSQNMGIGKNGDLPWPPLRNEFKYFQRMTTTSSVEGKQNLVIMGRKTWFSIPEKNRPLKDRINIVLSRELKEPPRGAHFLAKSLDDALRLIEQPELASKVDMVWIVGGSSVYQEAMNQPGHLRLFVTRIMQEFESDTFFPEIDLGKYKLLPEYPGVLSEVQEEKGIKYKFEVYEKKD
Put plainly: spectrophotometric DHFR assay at […] nm. It is filed as biochemical. Conditions: read-out: % inhibition at 122 μM.

Data set [1] has as its target T2, bDHFR (Bos taurus, UniProt P00376).
T2 sequence (P00376 1-187): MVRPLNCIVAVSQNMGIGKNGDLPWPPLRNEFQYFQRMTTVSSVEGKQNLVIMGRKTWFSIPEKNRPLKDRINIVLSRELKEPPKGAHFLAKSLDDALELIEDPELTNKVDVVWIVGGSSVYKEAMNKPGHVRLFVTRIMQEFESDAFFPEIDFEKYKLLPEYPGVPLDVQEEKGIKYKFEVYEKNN
As to the kind of experiment: spectrophotometric DHFR assay at […] nm. It is filed as biochemical. To be noted: read-out: % inhibition after preincubation with 0.68 mM.

Data set [2] addresses T2, bDHFR. Put plainly: spectrophotometric DHFR assay at […] nm. It is filed as biochemical.
Substrate in data set [3]: Nc1nc2c(c(=O)[nH]1)N=C(CNc1ccc(C(=O)N[C@@H](CCC(=O)O)C(=O)O)cc1)CN2
As to the kind of experiment: purified protein. Conditions: 37 °C, KCl, co-substrate NADPH.

Substrate in data set [4]: NC(=O)C1=CN([C@@H]2O[C@H](COP(=O)(O)OP(=O)(O)OC[C@H]3O[C@@H](n4cnc5c(N)ncnc54)[C@H](OP(=O)(O)O)[C@@H]3O)[C@@H](O)[C@H]2O)C=CC1
Put plainly: purified protein. Conditions: 37 °C, KCl, co-substrate DHFA, varied: cofactor. It is filed as biochemical, Mus musculus.

Substrate in data set [5]: NC(=O)C1=CN([C@@H]2O[C@H](COP(=O)(O)OP(=O)(O)OC[C@H]3O[C@@H](n4cnc5c(N)ncnc54)[C@H](OP(=O)(O)O)[C@@H]3O)[C@@H](O)[C@H]2O)C=CC1
As to the kind of experiment: purified protein. It is filed as biochemical, Bos taurus. Conditions: 37 °C, KCl, co-substrate DHFA, varied: cofactor.

A word on the inhibition: it is the change of the read-out against control, counted positive when it falls. `O=C(O[C@@H]1Cc2c(O)cc(O)cc2O[C@@H]1c1cc(O)c(O)c(O)c1)c1cc(O)c(O)c(O)c1` [EGCG]: the inhibition at 122 µM on mDHFR was determined as 18%. Also, the inhibition at 680 µM at bDHFR [1] was 26%.

A word on the Ki: it is the dissociation constant of the complex between target and ligand, obtained from inhibition or displacement. Low readings indicate higher affinity, high ones lower affinity. With `CNCCC=C1c2ccccc2CCc2ccccc21` [nortriptyline], the Ki at bDHFR [2] stood at 840 ± 250 nM.

B1: hDHFR (Homo sapiens) (protein)
chain: MVGSLNCIVAVSQNMGIGKNGDLPWPPLRNEFRYFQRMTTTSSVEGKQNLVIMGKKTWFSIPEKNRPLKGRINLVLSRELKEPPQGAHFLSRSLDDALKLTEQPELANKVDMVWIVGGSSVYKEAMNHPGHLKLFVTRIMQDFESDTFFPEIDLEKYKLLPEYPGVLSDVQEEKGIKYKFEVYEKND
By Km is commonly meant the substrate concentration at which the rate is half of its maximum. Usually kcat stands for the maximal rate divided by the concentration of active sites. As usually defined, the kcat/Km is the turnover number divided by the Michaelis constant. As for B1, in “purified protein [3]”, the Km was found to be 2.7 ± 0.5 µM, the kcat came to 40 ± 2 s⁻¹ and the kcat/Km was 1.5e+07 M⁻¹ s⁻¹.

B2: mDHFR (Mus musculus) (protein)
chain: MVRPLNCIVAVSQNMGIGKNGDLPWPPLRNEFKYFQRMTTTSSVEGKQNLVIMGRKTWFSIPEKNRPLKDRINIVLSRELKEPPRGAHFLAKSLDDALRLIEQPELASKVDMVWIVGGSSVYQEAMNQPGHLRLFVTRIMQEFESDTFFPEIDLGKYKLLPEYPGVLSEVQEEKGIKYKFEVYEKKD
With B2, in the data set “purified protein [3]”, the Km came to 0.32 ± 0.05 µM, the kcat was 29 ± 5 s⁻¹ and the specificity constant (kcat/Km) stood at 9.2e+07 M⁻¹ s⁻¹. In the data set “purified protein [4]”, the Michaelis-Menten constant (Km) was 2.4 ± 0.5 µM and the kcat came out at 29 ± 5 s⁻¹.

B3: bDHFR (Bos taurus) (protein)
chain: MVRPLNCIVAVSQNMGIGKNGDLPWPPLRNEFQYFQRMTTVSSVEGKQNLVIMGRKTWFSIPEKNRPLKDRINIVLSRELKEPPKGAHFLAKSLDDALELIEDPELTNKVDVVWIVGGSSVYKEAMNKPGHVRLFVTRIMQEFESDAFFPEIDFEKYKLLPEYPGVPLDVQEEKGIKYKFEVYEKNN
In the case of B3, in the data set “purified protein [5]”, the Km is 3.2 ± 0.6 µM and the turnover number (kcat) is 24 ± 7 s⁻¹. Further, in the data set “purified protein [3]”, the Km turned out to be 0.35 ± 0.13 µM, the turnover number (kcat) was determined as 24 ± 7 s⁻¹ and the kcat/Km stood at 6.8e+07 M⁻¹ s⁻¹.
